Data on three proteins can be found in patent publication US20040234530.

Series [1] has as its target T1, α1-antichymotrypsin (Sigma, St. Louis, MO), P01011.
T1 chain: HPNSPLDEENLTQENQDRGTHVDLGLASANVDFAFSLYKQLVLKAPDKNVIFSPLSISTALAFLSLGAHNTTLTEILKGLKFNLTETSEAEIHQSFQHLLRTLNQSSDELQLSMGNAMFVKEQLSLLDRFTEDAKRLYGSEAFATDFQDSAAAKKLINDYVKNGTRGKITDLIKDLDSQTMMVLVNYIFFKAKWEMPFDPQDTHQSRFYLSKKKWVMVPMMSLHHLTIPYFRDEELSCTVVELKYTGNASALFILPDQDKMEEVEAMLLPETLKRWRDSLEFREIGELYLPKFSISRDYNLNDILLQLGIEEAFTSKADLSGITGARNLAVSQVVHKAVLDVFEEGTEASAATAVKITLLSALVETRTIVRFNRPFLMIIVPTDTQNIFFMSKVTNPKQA

In series [2] the target is fibronectin (Calbiochem, San Diego, CA), P02751.
Chain of fibronectin (Calbiochem, San Diego, CA), P02751 (P02751 32-2477): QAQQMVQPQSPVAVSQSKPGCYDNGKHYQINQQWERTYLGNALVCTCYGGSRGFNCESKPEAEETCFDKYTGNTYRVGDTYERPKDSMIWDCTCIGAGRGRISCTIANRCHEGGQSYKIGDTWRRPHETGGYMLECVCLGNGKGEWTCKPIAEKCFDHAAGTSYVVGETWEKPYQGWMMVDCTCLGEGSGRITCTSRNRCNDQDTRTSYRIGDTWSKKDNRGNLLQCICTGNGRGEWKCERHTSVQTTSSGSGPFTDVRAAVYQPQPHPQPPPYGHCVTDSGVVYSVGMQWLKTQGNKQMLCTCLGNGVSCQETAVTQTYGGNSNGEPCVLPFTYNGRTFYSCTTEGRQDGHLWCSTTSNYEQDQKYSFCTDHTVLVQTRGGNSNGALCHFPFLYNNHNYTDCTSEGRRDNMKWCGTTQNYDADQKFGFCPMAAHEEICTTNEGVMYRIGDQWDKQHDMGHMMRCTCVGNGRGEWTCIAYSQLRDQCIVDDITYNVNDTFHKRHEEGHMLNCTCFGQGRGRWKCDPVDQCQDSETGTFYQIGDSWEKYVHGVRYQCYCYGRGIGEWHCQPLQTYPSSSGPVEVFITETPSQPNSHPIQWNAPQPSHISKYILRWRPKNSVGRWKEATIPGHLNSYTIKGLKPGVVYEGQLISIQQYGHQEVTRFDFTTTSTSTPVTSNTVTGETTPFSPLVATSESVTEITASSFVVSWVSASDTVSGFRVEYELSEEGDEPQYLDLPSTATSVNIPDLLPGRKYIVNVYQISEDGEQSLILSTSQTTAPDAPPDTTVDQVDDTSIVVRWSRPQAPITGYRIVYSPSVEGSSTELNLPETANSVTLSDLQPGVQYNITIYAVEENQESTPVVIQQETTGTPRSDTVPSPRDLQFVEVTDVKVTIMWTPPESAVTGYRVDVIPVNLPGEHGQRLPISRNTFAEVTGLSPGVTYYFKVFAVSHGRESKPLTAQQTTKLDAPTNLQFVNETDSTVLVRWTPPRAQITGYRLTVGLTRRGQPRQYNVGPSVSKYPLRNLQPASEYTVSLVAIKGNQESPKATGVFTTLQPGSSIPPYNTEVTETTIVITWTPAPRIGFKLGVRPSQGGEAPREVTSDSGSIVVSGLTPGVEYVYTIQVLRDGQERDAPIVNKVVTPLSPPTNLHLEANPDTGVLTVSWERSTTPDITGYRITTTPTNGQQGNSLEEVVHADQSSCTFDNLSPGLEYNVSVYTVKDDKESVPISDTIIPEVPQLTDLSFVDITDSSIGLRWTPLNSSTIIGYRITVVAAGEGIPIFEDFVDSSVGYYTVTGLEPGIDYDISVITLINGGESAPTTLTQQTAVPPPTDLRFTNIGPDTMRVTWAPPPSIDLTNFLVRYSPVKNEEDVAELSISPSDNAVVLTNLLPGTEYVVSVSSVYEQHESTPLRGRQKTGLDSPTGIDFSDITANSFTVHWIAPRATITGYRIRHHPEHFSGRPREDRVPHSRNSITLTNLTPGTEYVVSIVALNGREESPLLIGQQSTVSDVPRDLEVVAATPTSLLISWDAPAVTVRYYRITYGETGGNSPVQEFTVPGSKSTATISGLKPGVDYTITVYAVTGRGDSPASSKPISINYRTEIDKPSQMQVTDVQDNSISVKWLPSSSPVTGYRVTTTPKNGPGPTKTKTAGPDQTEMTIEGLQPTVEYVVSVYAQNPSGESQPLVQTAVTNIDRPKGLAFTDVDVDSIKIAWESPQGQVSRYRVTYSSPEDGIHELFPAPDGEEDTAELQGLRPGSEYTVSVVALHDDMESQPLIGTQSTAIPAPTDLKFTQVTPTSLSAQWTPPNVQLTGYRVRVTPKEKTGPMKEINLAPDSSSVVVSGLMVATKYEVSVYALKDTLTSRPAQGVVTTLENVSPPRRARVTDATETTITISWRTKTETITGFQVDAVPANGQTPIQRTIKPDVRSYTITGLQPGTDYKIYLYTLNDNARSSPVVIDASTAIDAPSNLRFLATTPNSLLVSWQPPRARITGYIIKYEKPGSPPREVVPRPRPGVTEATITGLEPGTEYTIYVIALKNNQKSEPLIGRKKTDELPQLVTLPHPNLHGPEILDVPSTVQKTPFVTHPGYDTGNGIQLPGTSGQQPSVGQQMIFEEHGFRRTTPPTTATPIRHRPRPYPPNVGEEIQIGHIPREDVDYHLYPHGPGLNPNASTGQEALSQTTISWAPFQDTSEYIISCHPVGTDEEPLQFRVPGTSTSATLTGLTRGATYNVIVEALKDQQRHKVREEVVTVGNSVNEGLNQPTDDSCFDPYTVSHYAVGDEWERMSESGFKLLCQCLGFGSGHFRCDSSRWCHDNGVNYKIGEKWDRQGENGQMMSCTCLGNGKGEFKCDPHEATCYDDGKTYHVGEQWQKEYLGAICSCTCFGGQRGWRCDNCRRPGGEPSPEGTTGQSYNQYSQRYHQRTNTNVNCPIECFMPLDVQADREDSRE
For series [3], the target named is T2, α2-antiplasmin (Calbiochem, San Diego, CA), P08697.
T2 chain: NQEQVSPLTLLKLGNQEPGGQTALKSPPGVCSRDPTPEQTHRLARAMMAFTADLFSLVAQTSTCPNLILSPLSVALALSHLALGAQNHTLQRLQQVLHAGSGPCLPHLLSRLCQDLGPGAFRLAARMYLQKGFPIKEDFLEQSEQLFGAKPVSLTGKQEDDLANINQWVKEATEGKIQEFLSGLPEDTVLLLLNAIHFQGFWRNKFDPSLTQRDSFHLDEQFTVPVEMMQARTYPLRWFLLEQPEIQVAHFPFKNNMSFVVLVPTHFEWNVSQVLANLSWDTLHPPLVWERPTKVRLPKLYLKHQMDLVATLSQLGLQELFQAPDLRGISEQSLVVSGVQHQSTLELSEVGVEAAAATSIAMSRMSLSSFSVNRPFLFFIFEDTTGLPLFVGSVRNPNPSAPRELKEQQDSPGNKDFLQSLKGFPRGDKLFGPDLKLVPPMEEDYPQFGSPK

The target of series [4] is antithrombin (Enzyme Research Labs, South Bend, IN), P01008.
Chain of antithrombin (Enzyme Research Labs, South Bend, IN), P01008 (P01008 whole entry, looked up): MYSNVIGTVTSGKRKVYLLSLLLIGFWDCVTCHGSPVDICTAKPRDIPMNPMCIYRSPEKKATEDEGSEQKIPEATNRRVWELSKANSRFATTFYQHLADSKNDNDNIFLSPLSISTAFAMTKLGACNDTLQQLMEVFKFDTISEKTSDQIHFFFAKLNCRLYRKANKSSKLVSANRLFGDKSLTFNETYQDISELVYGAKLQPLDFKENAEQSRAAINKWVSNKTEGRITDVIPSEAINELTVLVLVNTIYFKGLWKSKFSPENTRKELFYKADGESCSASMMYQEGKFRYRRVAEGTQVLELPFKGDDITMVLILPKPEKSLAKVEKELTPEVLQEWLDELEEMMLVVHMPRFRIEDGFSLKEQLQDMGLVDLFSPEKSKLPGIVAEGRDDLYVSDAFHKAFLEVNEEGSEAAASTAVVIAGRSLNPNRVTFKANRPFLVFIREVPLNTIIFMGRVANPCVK
Series [5] has as its target serum albumin (New England Biolabs, Beverly, MA).
In series [6] the target is α1-antitrypsin (Sigma, St. Louis, MO), P01009.
Chain of α1-antitrypsin (Sigma, St. Louis, MO), P01009 (P01009 whole entry, looked up): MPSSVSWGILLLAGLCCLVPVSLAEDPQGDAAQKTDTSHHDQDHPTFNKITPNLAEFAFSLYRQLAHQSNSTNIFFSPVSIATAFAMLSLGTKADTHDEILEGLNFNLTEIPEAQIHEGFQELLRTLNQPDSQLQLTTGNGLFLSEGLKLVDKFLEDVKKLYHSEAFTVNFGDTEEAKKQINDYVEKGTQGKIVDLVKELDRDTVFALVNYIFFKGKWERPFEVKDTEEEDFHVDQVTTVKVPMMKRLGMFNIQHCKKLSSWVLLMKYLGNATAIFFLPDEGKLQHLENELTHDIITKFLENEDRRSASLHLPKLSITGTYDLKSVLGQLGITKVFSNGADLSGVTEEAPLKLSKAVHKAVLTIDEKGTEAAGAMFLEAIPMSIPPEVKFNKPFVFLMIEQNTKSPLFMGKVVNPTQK
The target of series [7] is von Willebrand factor (gift from Dr. D. Mosher, UW-Madison), P04275.
In series [8] the target is Elastin (Sigma, St. Louis, MO).
In series [9] the target is BODIPY FL-conjugated casein (EnzChek Protease Assay Kit, Molecular Probes).
The target in series [10] is collagen IV (Rockland, Gilbertsville, PA).
The target of series [11] is Gelatin (BioRad, Hercules, CA).
The target in series [12] is T3, C1-esterase inhibitor (human plasma protease C1 inhibitor), purified or in human serum, P05155.
T3 chain: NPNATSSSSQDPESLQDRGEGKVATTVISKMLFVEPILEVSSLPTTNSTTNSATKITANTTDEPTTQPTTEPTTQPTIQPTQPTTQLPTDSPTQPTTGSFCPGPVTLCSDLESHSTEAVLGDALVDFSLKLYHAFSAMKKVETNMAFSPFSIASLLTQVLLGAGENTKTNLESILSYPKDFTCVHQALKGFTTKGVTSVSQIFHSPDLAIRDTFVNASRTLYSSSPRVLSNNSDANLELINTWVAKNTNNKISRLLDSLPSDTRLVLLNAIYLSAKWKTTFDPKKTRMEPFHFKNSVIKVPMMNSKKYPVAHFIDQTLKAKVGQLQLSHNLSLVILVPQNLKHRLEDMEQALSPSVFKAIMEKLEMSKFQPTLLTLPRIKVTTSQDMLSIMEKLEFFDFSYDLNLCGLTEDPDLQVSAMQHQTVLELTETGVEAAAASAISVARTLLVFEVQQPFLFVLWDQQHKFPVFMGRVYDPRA

The target in series [13] is T4, α2-macroglobulin (Calbiochem, San Diego, CA), P01023.
T4 chain: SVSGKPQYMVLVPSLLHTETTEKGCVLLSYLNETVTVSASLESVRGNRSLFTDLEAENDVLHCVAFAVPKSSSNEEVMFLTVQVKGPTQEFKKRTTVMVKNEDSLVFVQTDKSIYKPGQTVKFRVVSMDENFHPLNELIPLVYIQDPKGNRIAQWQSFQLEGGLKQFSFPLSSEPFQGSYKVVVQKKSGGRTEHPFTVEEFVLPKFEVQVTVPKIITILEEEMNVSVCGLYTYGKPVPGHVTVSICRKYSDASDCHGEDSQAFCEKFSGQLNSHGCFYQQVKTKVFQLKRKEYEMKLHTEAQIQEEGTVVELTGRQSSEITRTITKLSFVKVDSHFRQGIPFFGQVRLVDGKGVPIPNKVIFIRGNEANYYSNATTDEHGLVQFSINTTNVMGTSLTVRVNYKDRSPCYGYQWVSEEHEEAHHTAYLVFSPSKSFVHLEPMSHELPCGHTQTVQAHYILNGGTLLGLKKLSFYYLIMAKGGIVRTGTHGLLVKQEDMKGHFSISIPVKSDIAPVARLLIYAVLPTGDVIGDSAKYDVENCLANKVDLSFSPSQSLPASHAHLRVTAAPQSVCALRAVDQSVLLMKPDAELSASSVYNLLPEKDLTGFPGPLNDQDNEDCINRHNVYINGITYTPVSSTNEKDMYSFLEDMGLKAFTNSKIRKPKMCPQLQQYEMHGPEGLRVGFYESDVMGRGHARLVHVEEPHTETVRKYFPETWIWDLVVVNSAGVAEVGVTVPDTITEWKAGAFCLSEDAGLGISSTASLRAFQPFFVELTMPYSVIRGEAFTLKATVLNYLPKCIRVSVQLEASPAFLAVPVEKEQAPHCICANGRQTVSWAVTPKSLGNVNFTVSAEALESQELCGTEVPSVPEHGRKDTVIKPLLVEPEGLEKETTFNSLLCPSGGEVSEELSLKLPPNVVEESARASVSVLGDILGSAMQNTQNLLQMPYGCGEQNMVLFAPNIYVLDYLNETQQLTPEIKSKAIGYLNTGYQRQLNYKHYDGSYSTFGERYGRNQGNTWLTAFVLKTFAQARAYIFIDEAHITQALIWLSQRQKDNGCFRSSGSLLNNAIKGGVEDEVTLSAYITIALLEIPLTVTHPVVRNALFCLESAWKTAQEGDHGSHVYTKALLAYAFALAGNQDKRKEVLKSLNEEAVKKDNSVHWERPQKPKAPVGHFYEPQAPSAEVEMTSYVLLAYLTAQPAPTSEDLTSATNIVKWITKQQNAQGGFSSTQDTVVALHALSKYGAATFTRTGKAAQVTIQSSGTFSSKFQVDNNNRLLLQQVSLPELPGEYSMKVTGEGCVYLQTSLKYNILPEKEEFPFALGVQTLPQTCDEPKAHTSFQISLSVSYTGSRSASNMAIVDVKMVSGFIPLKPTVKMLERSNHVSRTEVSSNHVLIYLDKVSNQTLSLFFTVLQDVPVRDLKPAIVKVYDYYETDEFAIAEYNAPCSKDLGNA

Series [14] addresses T5, C-serp(98), a recombinant C1-INH molecule lacking the N-terminal amino acids 1-97 and containing only the serpin domain, P05155.
T5 chain: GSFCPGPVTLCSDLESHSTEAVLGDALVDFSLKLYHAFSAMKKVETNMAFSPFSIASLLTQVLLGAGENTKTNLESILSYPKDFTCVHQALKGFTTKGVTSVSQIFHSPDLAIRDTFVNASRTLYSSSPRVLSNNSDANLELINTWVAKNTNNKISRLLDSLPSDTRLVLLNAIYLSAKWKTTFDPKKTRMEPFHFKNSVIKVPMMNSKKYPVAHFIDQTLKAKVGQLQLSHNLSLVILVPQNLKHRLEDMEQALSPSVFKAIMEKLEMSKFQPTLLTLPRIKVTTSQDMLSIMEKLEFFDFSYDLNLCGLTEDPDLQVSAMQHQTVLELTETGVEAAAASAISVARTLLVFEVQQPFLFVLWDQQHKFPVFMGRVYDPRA

For series [15], the target named is T6, recombinant, full-length human C1-INH (hC1-INH) expressed in COS-7 cells, 35S-methionine-labeled, P05155.
T6 chain: T3 chain

B1: StcE-His (recombinant his-tagged form of StcE, from pWL107 in BL21(DE3), strain WAM2572) (protein)
chain: ADNNSAIYFNTSQPINDLQGSLAAEVKFAQSQILPAHPKEGDSQPHLTSLRKSLLLVRPVKADDKTPVQVEARDDNNKILGTLTLYPPSSLPDTIYHLDGVPEGGIDFTPHNGTKKIINTVAEVNKLSDASGSSIHSHLTNNALVEIHTANGRWVRDIYLPQGPDLEGKMVRFVSSAGYSSTVFYGDRKVTLSVGNTLLFKYVNGQWFRSGELENNRITYAQHIWSAELPAHWIVPGLNLVIKQGNLSGRLNDIKIGAPGELLLHTIDIGMLTTPRDRFDFAKDKEAHREYFQTIPVSRMIVNNYAPLHLKEVMLPTGELLTDMDPGNGGWHSGTMRQRIGKELVSHGIDNANYGLNSTAGLGENSHPYVVAQLAAHNSRGNYANGIQVHGGSGGGGIVTLDSTLGNEFSHEVGHNYGLGHYVDGFKGSVHRSAENNNSTWGWDGDKKRFIPNFYPSQTNEKSCLNNQCQEPFDGHKFGFDAMAGGSPFSAANRFTMYTPNSSAIIQRFFENKAVFDSRSSTGFSKWNADTQEMEPYEHTIDRAEQITASVNELSESKMAELMAEYAVVKVHMWNGNWTRNIYIPTASADNRGSILTINHEAGYNSYLFINGDEKVVSQGYKKSFVSDGQFWKERDVVDTREARKPEQFGVPVTTLVGYYDPEGTLSSYIYPAMYGAYGFTYSDDSQNLSDNDCQLQVDTKEGQLRFRLANHRANNTVMNKFHINVPTESQPTQATLVCNNKILDTKSLTPAPEGLTYTVNGQALPAKENEGCIVSVNSGKRYCLPVGQRSGYSLPDWIVGQEVYVDSGAKAKVLLSDWDNLSYNRIGEFVGNVNPADMKKVKAWNGQYLDFSKPRSMRVVYKHHHHHH
In the case of B1, the Proteolysis of substrates entry in series [1], in series [2], in [3], in [4], in series [5] and in series [6] was “-” in each case. Further, the Proteolysis of substrates result in series [7] is on record as “-”; in [8], “-”; in [10] it was “-”; in [11], “-”; in series [12] it was “+”; in [13], “-”. For the same protein, in [9], the “fluorescent measurement of casein degradation” value is reported as “StcE-His was unable to degrade casein even at high protein concentrations (up to 6.4 µg/unit of volume)”.

B2: StcE′-His (lacking the StcE N-terminal signal sequence, 6xHis tag at the C-terminus; from pTB4, strain WAM2751) (protein)
chain: B1 chain
On to B2, for which the “cleavage of 35S-labeled recombinant protein (immunoprecipitation, SDS-PAGE)” value in [14] is listed as “C-serp(98) was unaffected by the protease”; in series [15] it was “only hC1-INH was cleaved by StcE′-His”.

B3: Pseudomonas aeruginosa elastase (Calbiochem EC# 3.4.24.26) (protein)
chain: AEAGGPGGNQKIGKYTYGSDYGPLIVNDRCEMDDGNVITVDMNSSTDDSKTTPFRFACPTNTYKQVNGAYSPLNDAHFFGGVVFKLYRDWFGTSPLTHKLYMKVHYGRSVENAYWDGTAMLFGDGATMFYPLVSLDVAAHEVSHGFTEQNSGLIYRGQSGGMNEAFSDMAGEAAEFYMRGKNDFLIGYDIKKGSGALRYMDQPSRDGRSIDNASQYYNGIDVHHSSGVYNRAFYLLANSPGWDTRKAFEVFVDANRYYWTATSNYNSGACGVIRSAQNRNYSAADVTRAFSTVGVTCPSAL
With B3, the Proteolysis of substrates result in series [1], in [2], in [3], in [4], in series [6] and in series [8] was “+” in each case. The Proteolysis of substrates entry in series [10] was “-”; in series [11], “+”; in series [12], “+”; in series [13] it was “+”. Besides, the “fluorescent measurement of casein degradation” value in series [9] is recorded as “elastase was able to act on casein at lower concentrations (range: 0.5 ng to 1 µg/unit of volume)”.
